The target of the experiment is T1, Recombinant His-cGAS (human, UniProt Q8N884 1-522).
T1 construct: cGAS cloned into the pET28a plasmid for the GST pull-down; also called purified His-cGAS
The experiment can be described thus: pull-down; purified His-cGAS incubated with GST, GST-TRIM6 or its truncated mutants on GST-tag resin overnight at 4 °C; 50 mM Tris pH 8.0, 200 mM NaCl, 1 mM EDTA, 1% NP-40, 1 mM DTT, 1 mM MgCl2; immunoblot with anti-His or anti-cGAS. The following applies: both partners purified.

Consider one molecule from paper PMC12355757, “TRIM6 ablation reverses ICB resistance in MSS gastric cancer by unleashing cGAS-STING-dependent antitumor immunity” (Journal of Experimental & Clinical Cancer Research : CR, 2025).

T1 sequence (Q8N884 whole entry): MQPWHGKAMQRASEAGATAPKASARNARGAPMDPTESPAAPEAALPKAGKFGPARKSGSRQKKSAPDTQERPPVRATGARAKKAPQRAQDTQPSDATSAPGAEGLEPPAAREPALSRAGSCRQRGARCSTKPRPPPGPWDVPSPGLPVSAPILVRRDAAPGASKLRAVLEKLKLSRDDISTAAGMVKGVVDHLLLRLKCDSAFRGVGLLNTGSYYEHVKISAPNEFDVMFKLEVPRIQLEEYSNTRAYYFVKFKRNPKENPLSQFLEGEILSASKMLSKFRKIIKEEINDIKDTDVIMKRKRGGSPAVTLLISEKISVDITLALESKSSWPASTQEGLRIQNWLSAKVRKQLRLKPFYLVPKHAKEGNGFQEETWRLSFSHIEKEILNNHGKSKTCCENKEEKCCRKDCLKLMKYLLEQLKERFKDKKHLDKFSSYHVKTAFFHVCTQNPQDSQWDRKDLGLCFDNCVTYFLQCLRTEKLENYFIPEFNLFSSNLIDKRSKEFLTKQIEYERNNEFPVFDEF

B1: GST-TRIM6 (full length) (enzyme, human, UniProt Q9C030-2 1-516, looked up)
chain: MCGSERILQAGNILEIRVGQAGARRVATMTSPVLVDIREEVTCPICLELLTEPLSIDCGHSFCQACITPNGRESVIGQEGERSCPVCQTSYQPGNLRPNRHLANIVRRLREVVLGPGKQLKAVLCADHGEKLQLFCQEDGKVICWLCERSQEHRGHHTFLVEEVAQEYQEKFQESLKKLKNEEQEAEKLTAFIREKKTSWKNQMEPERCRIQTEFNQLRNILDRVEQRELKKLEQEEKKGLRIIEEAENDLVHQTQSLRELISDLERRCQGSTMELLQDVSDVTERSEFWTLRKPEALPTKLRSMFRAPDLKRMLRVCRELTDVQSYWVDVTLNPHTANLNLVLAKNRRQVRFVGAKVSGPSCLEKHYDCSVLGSQHFSSGKHYWEVDVAKKTAWILGVCSNSLGPTFSFNHFAQNHSAYSRYQPQSGYWVIGLQHNHEYRAYEDSSPSLLLSMTVPPRRVGVFLDYEAGTVSFYNVTNHGFPIYTFSKYYFPTTLCPYFNPCNCVIPMTLRRPSS
notes: TRIM6, human, full-length, cloned into the pGEX-6T-1 vector; also called full-length TRIM6
For the molecule B1, the binding result was “binds”.
